Two substances from patent US20230036060A1, “DUAL-CONTROLLED DRUG AND PHOTOACTIVATABLE SYSTEM FOR SPATIOTEMPORAL CONTROL OF CELL THERAPY” (THE REGENTS OF THE UNIVERSITY OF CALIFORNIA, priority 2019, published 2023) can be followed below.

For experiment [1], the target named is CIB1-CreC(106-343) (Arabidopsis thaliana) (UniProt Q8GY61). As to the kind of experiment: cell-based or functional assay.
Experiment [2] deals with NLS-pMag-CreC. As to the kind of experiment: cell-based or functional assay.
Sequence of NLS-pMag-CreC (chain, as listed by the source): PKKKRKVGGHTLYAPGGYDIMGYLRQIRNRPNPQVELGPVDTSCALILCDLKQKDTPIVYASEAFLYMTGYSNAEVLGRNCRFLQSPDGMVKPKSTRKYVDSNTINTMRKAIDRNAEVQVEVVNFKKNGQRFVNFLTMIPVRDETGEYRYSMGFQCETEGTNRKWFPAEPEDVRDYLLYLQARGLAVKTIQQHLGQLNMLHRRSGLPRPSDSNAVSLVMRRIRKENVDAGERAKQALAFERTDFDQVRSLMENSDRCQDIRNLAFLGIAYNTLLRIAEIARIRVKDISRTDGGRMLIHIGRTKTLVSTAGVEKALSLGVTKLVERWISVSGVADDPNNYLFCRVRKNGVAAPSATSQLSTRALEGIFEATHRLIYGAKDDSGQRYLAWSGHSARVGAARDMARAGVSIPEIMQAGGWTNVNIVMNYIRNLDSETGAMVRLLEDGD

Sequence of CreN(19-59)-nMag-NLS (P06956 19-59): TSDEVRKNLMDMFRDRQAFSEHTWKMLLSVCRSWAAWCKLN

As to “CRY2(L348F)-CreN(19-104) (from UniProt Q96524 1-612; P06956 19-104)”, in experiment [1], the fold increase in Cre-loxP recombination, PA-Cre-C, Light against Dark was 2.1 fold and the normalized % recombined (EGFP+) EGFP Reporter HEK293T cells, PA-Cre-C, Light (30 W/m2, 30 s) stood at 12.1%.

Consider “CreN(19-59)-nMag-NLS (from UniProt P06956 19-59)”, for which, in experiment [2], the fold increase in Cre-loxP recombination, PA-Cre-M, Light against Dark is 3.4 fold; the fold increase in recombined PA-Cre-M+ CAR Reporter Jurkat T cells, Light against Dark worked out at 4.1 fold; the normalized % recombined (CAR-EGFP+) PA-Cre-M+ CAR Reporter Jurkat T cells, Dark came to 5.2%; the normalized % recombined (CAR-EGFP+) PA-Cre-M+ CAR Reporter Jurkat T cells, Light, Protocol E amounted to 21.2%. Besides, in experiment [2], the normalized % recombined (EGFP+) EGFP Reporter HEK293T cells, PA-Cre-M, Light (30 W/m2, 30 s) worked out at 90.8%; the normalized % recombined EGFP Reporter HEK293T cells, PA-Cre-M, Ambient light was 28.9%; the normalized % recombined EGFP Reporter HEK293T cells, PA-Cre-M, Ambient, Protocol B experiment is 45.2%; the normalized % recombined EGFP Reporter HEK293T cells, PA-Cre-M, Dark (pulsatile protocol experiment) worked out at 20.4%. In addition, in experiment [2], the normalized % recombined EGFP Reporter HEK293T cells, PA-Cre-M, Dark (spontaneous background) worked out at 26.7%; the normalized % recombined EGFP Reporter HEK293T cells, PA-Cre-M, Dark, Protocol B experiment came out at 32.9%; the normalized % recombined EGFP Reporter HEK293T cells, PA-Cre-M, Light, Protocol B was 84.8%.
